Target: T1, Interferon-activable protein 204 (Mus musculus) (IFI204) (Mus musculus, UniProt P0DOV2 1-619)
T1 construct: also called IF204
T1 sequence: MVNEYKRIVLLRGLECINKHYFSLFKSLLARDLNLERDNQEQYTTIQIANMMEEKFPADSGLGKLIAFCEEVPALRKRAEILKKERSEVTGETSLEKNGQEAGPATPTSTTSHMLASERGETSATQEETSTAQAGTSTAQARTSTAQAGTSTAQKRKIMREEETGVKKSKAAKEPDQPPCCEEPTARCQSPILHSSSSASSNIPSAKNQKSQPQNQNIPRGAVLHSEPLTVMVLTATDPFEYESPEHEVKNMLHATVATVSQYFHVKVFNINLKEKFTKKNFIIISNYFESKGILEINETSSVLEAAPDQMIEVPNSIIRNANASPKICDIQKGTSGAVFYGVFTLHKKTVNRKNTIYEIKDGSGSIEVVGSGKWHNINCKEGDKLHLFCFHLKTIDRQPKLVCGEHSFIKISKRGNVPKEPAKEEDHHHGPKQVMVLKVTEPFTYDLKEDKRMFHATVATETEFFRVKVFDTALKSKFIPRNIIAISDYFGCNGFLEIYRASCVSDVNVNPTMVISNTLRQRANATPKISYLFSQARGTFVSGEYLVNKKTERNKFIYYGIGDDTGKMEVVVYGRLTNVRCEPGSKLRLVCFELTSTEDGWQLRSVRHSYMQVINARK
Experiment: Flag IP and immunoblot of transfected HEK293T lysates
Method: Red arrow heads indicate position of respective interacting proteins.
Immunoblotting was performed using standard protocols. […] For immunoprecipitation HEK293T cells were lysed in 1% Triton X-100 buffer [50 mM Tris-HC1, pH7.4, 1% (v/v) Triton X-100, 150 mM NaCl, 1 mM EDTA, and protease and phosphatase inhibitor cocktails (Thermo Fisher Scientific)] and freeze-thawed 3 times. Lysates were then incubated overnight with indicated antibodies and then for 4 hr with protein A/G agarose beads (Santa Cruz Biotechnology) under gentle mixing. Proteins were eluted by addition of lysis buffer and boiled in Laemmli buffer before separation on SDS-PAGE and transfer to a PVDF membrane.

B1: Flag-tagged SHARPIN (other, human, UniProt Q9H0F6 1-387, looked up)
chain: MAPPAGGAAAAASDLGSAAVLLAVHAAVRPLGAGPDAEAQLRRLQLSADPERPGRFRLELLGAGPGAVNLEWPLESVSYTIRGPTQHELQPPPGGPGTLSLHFLNPQEAQRWAVLVRGATVEGQNGSKSNSPPALGPEACPVSLPSPPEASTLKGPPPEADLPRSPGNLTEREELAGSLARAIAGGDEKGAAQVAAVLAQHRVALSVQLQEACFPPGPIRLQVTLEDAASAASAASSAHVALQVHPHCTVAALQEQVFSELGFPPAVQRWVIGRCLCVPERSLASYGVRQDGDPAFLYLLSAPREAPATGPSPQHPQKMDGELGRLFPPSLGLPPGPQPAASSLPSPLQPSWSCPSCTFINAPDRPGCEMCSTQRPCTWDPLAAAST
notes: also called Flag-SHARPIN; not shown: FLAG tag
binding result: binds
